Data from patent publication US20220403048A1, “BINDING MOLECULES TO ARGINASE II [ARG2]” (Cancer Research Technology Limited, priority 2019, published 2022).

T1: human ARG2 (Homo sapiens, UniProt P78540, E275H/R327K)
T1 construct: His10 (after a GGG linker) (C); made in house; host or cells: E. coli BL21 (DE3)
T1 sequence (P78540 23-354 E275H/R327K): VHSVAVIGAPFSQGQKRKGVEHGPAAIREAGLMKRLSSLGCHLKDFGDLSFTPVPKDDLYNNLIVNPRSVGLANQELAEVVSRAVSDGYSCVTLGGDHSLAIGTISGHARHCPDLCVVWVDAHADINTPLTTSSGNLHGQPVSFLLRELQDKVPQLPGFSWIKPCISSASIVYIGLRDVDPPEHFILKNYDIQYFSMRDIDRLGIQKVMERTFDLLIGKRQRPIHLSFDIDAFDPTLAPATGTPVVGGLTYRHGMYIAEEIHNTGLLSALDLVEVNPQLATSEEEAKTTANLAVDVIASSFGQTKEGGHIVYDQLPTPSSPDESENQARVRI


Tests used:
cynomolgus ARG2 = experiment: Bio-Layer Interferometry (OctetRED) binding kinetics, cynomolgus ARG2; conditions: cyno ARG2 ligand
cynomolgus ARG2, sequence (as listed by the source): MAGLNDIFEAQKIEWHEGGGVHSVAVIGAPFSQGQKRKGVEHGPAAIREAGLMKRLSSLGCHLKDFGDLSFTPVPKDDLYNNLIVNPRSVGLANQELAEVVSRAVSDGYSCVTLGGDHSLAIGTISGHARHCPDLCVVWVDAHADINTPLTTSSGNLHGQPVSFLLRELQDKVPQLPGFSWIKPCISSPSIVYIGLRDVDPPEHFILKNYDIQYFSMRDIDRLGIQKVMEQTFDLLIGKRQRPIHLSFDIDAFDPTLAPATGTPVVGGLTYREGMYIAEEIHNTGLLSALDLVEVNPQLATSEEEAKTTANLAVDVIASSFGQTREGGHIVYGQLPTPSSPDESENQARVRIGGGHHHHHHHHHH
Text: (§1) The OctetRED (Pall ForteBio) instrument was used to assess the kinetic parameters of the interactions between C0020187 and recombinantly produced human ARG2, cynomolgus ARG2 and human ARG1. The Octet biosensor uses an optical analytical technique that analyses the interference pattern of white light reflected from two surfaces: a layer of immobilised protein on the sensor tip, and an internal reference layer. Any changes in binding at the biosensor tip result in a shift in interference pattern, which can be measured in real time. Molecules associating with or dissociating from ligands at the biosensor tip shift the interference pattern and generate a response on the Octet system which is recorded by the acquisition software.
(§2) Typically, a defined concentration of the analyte species is brought into contact with the coupled ligand and any binding is detected as an increased in signal (association phase). This is followed by a period of buffer rinse, during which dissociation of the analyte species from the surface immobilised ligand can be observed as a decrease in signal (dissociation phase). Repetition of this with a range of analyte concentrations provides data for the analysis of binding kinetics.
(§3) An Octet Kinetics Buffer (PBS containing 0.01% BSA and 0.002% Tween20) is typically used as the diluent buffer for the analyte samples and as the flow buffer during the dissociation phase. The experimental data is recorded over time as shift in interference pattern (nm) over time, which is directly proportional to the optical thickness at the biosensor tip, which in turn is an approximate measure of the mass of analyte bound. The proprietary Octet Data Analysis software package can then be used to process data and fit binding models to the data sets. Returned association (ka, M^−1 s^−1) and dissociation (kd, s^−1) rate constants allow calculation of dissociation (KD, M) affinity constants.
(§4) The affinity of binding between the Fab of C0020187 and human ARG2, cynomolgus ARG2 and human ARG1 was estimated using assays in which the biotinylated ARG antigen was captured on a streptavidin sensor tip. A fresh sensor tip was used for each measurement and no regeneration was used. A series of dilutions of the C0020187 Fab (3.25-240 nM) were individually placed in contact with the ligand surface for a sufficient amount of time to observe sensorgrams that could be fitted to an appropriate binding model with confidence (typically 5 minutes), followed by an appropriate length of dissociation time (typically 10 minutes). Blank reference (0 nM Fab) data were subtracted from each dataset to reduce the impact of any buffer artefacts or non-specific binding effects. An appropriate binding model was then fitted simultaneously to the data from each analyte titration using the Octet Evaluation software.
(§5) Example results for C0020187 are shown in Table 9, showing the association rate constants (ka), dissociation rate constants (kd) and dissociation constants (KD). These parameters were derived from a 1:1 binding fit to the data.
(§6) The affinities of the affinity-matured antibodies to human ARG2 were measured on the OctetRED system as described in section 1.15 using the streptavidin capture method. Typically, an analyte titration range of 1.8 to 120 nM was used.
The affinities of some of these antibodies to cynomolgus ARG2 were determined using the same assay, and the derived kinetic parameters are shown in Table 21.

human ARG2 = biological target: T1, human ARG2; experiment: Bio-Layer Interferometry (OctetRED) binding kinetics, human ARG2
Text: as §1, §2, §3, §4, §5, §6
The affinities of the second-generation antibodies to human ARG2 were measured on the OctetRED system. A screening assay which stably captures His-tagged ARG2 as the ligand on an anti-His surface was utilised to screen the second-generation candidates as Fabs at an analyte range of 1.8 to 120 nM, with an association time of 5 minutes and a dissociation time of 10 minutes. Sensors were regenerated using 10 mM glycine pH 1.5 after each cycle. Based on this assay, six candidates with estimated affinities in the sub-nanomolar range were identified, and they were further profiled using an extended assay which is more suitable for antibodies of high affinities. […]

[1] = second-generation Fab, same extended assay
[2] = second-generation Fab, extended assay: association 10 min, dissociation 40 min, 0.47 to 30 nM, streptavidin surface with bio-ARG2
[3] = Fab as analyte, affinity-matured antibodies
[4] = Fab as analyte, streptavidin capture, analyte 1.8 to 120 nM, affinity-matured antibodies

Row | ka (cynomolgus ARG2; [1]) | kd (cynomolgus ARG2; [1]) | ka (human ARG2; [2]) | kd (human ARG2; [2]) | ka (cynomolgus ARG2; [3]) | kd (cynomolgus ARG2; [3]) | ka (human ARG2; [4]) | kd (human ARG2; [4]) | Molecule
1 | 429000 M⁻¹ s⁻¹ | 4.64e-05 s⁻¹ | 262000 M⁻¹ s⁻¹ | 4.54e-05 s⁻¹ |  |  |  |  | C0021158 IgG: anti-ARG2 antibody, VH SEQ ID NO: 282, VL SEQ ID NO: 287; IgG and Fab versions carry these sequences (antibody, listed as Homo sapiens, V domains shown, C0021158 IgG) VH: EVQLLESGGGLVQPGGSLRLSCAASGFTFRYEVAAWVRQAPGKGLEWVSAISGPIPKGYYADSVKGRFTISRDNSKNTLYLQMNSLRAEDTAVYYCARLRADLGLYMDLWGRGTLVTVSS VL: QSVLTQPPSVSAAPGQKVTISCSGSSSNIGNHYVSWYQQLPGTAPKLLIYDNSERTAGVPDRFSGSKSGTSATLGITGLQTGDEADYYCGTWDELTSNLVFGGGTKLTVL
2 |  |  |  |  | 706000 M⁻¹ s⁻¹ | 0.00117 s⁻¹ | 412000 M⁻¹ s⁻¹ | 0.00112 s⁻¹ | C0021022: anti-ARG2 antibody, VH SEQ ID NO: 42, VL SEQ ID NO: 47 (antibody, listed as Homo sapiens, V domains shown, C0021022) VH: EVQLLESGGGLVQPGGSLRLSCAASGFTFSSYAMSWVRQAPGKGPEWVSAISGFSPYYADSVKGRFTISRDNSKNTLYLQMNSLRAEDTAVYYCARLRADLGLYMDLWGRGTLVTVSS VL: QSVLTQPPSVSAAPGQKVTISCSGSSSNIGNHYVSWYQQLPGTAPKLLIYDNSERPSGIPDRFSGSKSGTSATLGITGLQTGDEADYYCGTWDSSLSALVFGGGTKLTVL
3 |  |  |  |  | 275000 M⁻¹ s⁻¹ | 0.000724 s⁻¹ | 198000 M⁻¹ s⁻¹ | 0.000871 s⁻¹ | C0021139: anti-ARG2 antibody, VH SEQ ID NO: 212, VL SEQ ID NO: 217 (antibody, listed as Homo sapiens, V domains shown, C0021139) VH: EVQLLESGGGLVQPGGSLRLSCAASGFTFQYDYQVWVRQAPGKGLEWVSAISGSGGSTYYADSVKGRFTISRDNSKNTLYLQMNSLRAEDTAVYYCARLRADLGLYMDLWGRGTLVTVSS VL: QSVLTQPPSVSAAPGQKVTISCSGSSSNIGNHYVSWYQQLPGTAPKLLIYDNSERTSGIPDRFSGSKSGTSATLGITGLQTGDEADYYCGTWDELTSNLVFGGGTKLTVL
4 |  |  |  |  | 328000 M⁻¹ s⁻¹ | 0.000549 s⁻¹ | 219000 M⁻¹ s⁻¹ | 0.000449 s⁻¹ | C0021133: anti-ARG2 antibody, VH SEQ ID NO: 192, VL SEQ ID NO: 197 (antibody, listed as Homo sapiens, V domains shown, C0021133) VH: EVQLLESGGGLVQPGGSLRLSCAASGFTFRYDHHVWVRQAPGKGLEWVSAISGSGGSTYYADSVKGRFTISRDNSKNTLYLQMNSLRAEDTAVYYCARLRADLGLYMDLWGRGTLVTVSS VL: QSVLTQPPSVSAAPGQKVTVSCSGSSSNIGNHYVSWYQQLPGTAPKLLIYDTTVLSSGIPDRFSGSKSGTSATLGITGLQTGDEADYYCGTWDELTSNLVFGGGTKLTVL
5 | 414000 M⁻¹ s⁻¹ | 3.12e-05 s⁻¹ | 202000 M⁻¹ s⁻¹ | 3.51e-05 s⁻¹ |  |  |  |  | C0021177: anti-ARG2 antibody, VH SEQ ID NO: 322, VL SEQ ID NO: 327 (antibody, listed as Homo sapiens, V domains shown, C0021177) VH: EVQLLESGGGLVQPGGSLRLSCAASGFTFRYEVAAWVRQAPGKGLEWVSAISGPAPKGYYADSVKGRFTISRDNSKNTLYLQMNSLRAEDTAVYYCARLRADLGLYMDLWGRGTLVTVSS VL: QSELTQPPTASAAPGQKVTISCSGSSSNIGNHYVSWYQQLPGTAPKLLIYDTTVLSSGIPDRFSGSKSGTSATLGITGLQTGDEADYYCGTWDELTSNLVFGGGTKLTVL
6 | 381000 M⁻¹ s⁻¹ | 0.000135 s⁻¹ | 278000 M⁻¹ s⁻¹ | 0.000122 s⁻¹ |  |  |  |  | C0021180: anti-ARG2 antibody, VH SEQ ID NO: 332, VL SEQ ID NO: 337 (antibody, listed as Homo sapiens, V domains shown, C0021180) VH: EVQLLESGGGLVQPGGSLRLSCAASGFTFRYEVAAWVRQAPGKGLEWVSAISGPIPKGYYADSVKGRFTISRDNSKNTLYLQMNSLRAEDTAVYYCARLRADLGLYMDLWGRGTLVTVSS VL: QSVLTQPPTVSAAPGRKVTISCSGSSSNIGDHHVSWYQQLPGAAPKLLIYDTDHMASGIPDRFSGSRSGTSATLGITGLQTGDEADYYCGTWDSSLSALVFGGGTKLTVL
7 | 257000 M⁻¹ s⁻¹ | 4.43e-05 s⁻¹ | 145000 M⁻¹ s⁻¹ | 4.17e-05 s⁻¹ |  |  |  |  | C0021181: anti-ARG2 antibody, VH SEQ ID NO: 342, VL SEQ ID NO: 347 (antibody, listed as Homo sapiens, V domains shown, C0021181) VH: EVQLLESGGGLVRPGGSLRLSCAASEFTFRYDYHVWVRQAPGKGLEWVSAISGSGGSTYYADSVKSRFTISRDNSKNTLYLQMNSLRAEDTAVYYCARLRADLGLYMDLWGRGTLVTVSS VL: QSVLTQPPSVSAAPGQKVAVSCSGSSSNIGSHYVSWYQQLPGTAPKLLIYDNSERTSGIPDRFSGSKSGTSATLGITGLQTGDEADYYCGTWDELTSNLVFGGGTRLTVL
8 |  |  |  |  | 310000 M⁻¹ s⁻¹ | 0.000296 s⁻¹ | 271000 M⁻¹ s⁻¹ | 0.000351 s⁻¹ | C0021061: anti-ARG2 antibody, first generation lead, VH SEQ ID NO: 62, VL SEQ ID NO: 67 (antibody, listed as Homo sapiens, V domains shown, C0021061) VH: EVQLLESGGGLVQPGGSLRLSCAASGFTFSSYAMSWVRQAPGKGLEWVSAKPTDAGSTYYADSVKGRFTISRDNSKNTLYLQMNSLRAEDTAVYYCARLRADLGLYMDLWGRGTLVTVSS VL: QSVLTQPPSVSAAPGQKVTISCSGSSSNIGNHYVSWYQQLPGTAPKLLIYNTVYPKSGIPDRFSGSKSGTSATLGITGLQTGDEADYYCGTWDSSLSALVFGGGTKLTVL
9 |  |  |  |  | 354000 M⁻¹ s⁻¹ | 0.000726 s⁻¹ | 280000 M⁻¹ s⁻¹ | 0.000755 s⁻¹ | C0021092: anti-ARG2 antibody, VH SEQ ID NO: 92, VL SEQ ID NO: 97 (antibody, listed as Homo sapiens, V domains shown, C0021092) VH: EVQLLESGGGLVQPGGSLRLSCAASGFTFSRYAMSWVRQAPGKGLEWVSAHTHSPGSTYYADSVKGRFTISRDNSKNTLYLQMNSLRAEDTAVYYCARLRADLGLYMDLWGRGTLVTVSS VL: QSVLTQPPSVSAAPGQKVTISCSGSSSNIGNHYVSWYQQLPGTAPKLLIYNSVARPSGIPDRFSGSKSGTSATLGITGLQTGDEADYYCGTWDSSLSALVFGGGTKLTVL
10 |  |  |  |  | 617000 M⁻¹ s⁻¹ | 0.000782 s⁻¹ | 409000 M⁻¹ s⁻¹ | 0.000665 s⁻¹ | C0021065: anti-ARG2 antibody, VH SEQ ID NO: 72, VL SEQ ID NO: 77 (antibody, listed as Homo sapiens, V domains shown, C0021065) VH: EVQLLESGGGLVQPGGSLRLSCAASGFTFSSYAMSWVRQAPGKGPEWVSAISGFSPYYADSVKGRFTISRDNSRNTLYLQMNSLRAEDTAVYYCARLRADLGLYMDLWGRGTLVTVSS VL: QSVLTQPPSVSAAPGQKVTISCSGSSSNIGNHYVSWYQQLPGTAPKLLIYDTDHMASGIPDRFSGSKSGTSATLGITGLQTGDEADYYCGTWDSSLSALVFGGGTKLTVL
